Laboratory results as given in patent US20250152746A1, “BASE EDITING OF ANGPTL3 AND METHODS OF USING SAME FOR TREATMENT OF DISEASE” (Verve Therapeutics, Inc., priority 2020, published 2025).
Read-outs that look alike come from different tables or passages of the source.

How the values were obtained:
ANGPTL3 gene [1] = test: ANGPTL3 gRNA/SpCas9 editing in primary cynomolgus hepatocytes (Table 3); type: cell-based, cynomolgus monkey
Protocol: (§1) In set of experiments, PCSK9 gRNAs were co-transfected with an equivalent amount (1:1 ratio by weight) of in vitro transcribed commercially available SpCas9 mRNA MS002 purchased from TriLink Biotechnologies into primary human hepatocytes at 2500, 500, or 100 ng/RNA/mL and processed as described in detailed methods. Extracted genomic DNA was analyzed for gene editing at the target site with next-generation sequencing of PCR amplicons generated around the target sites. Samples were prepared using the Nextera XT DNA library preparation kit (Illumina) according to the manufacturer's protocol. Briefly, two rounds of PCR were performed first to amplify the region of interest and second to add DNA sequences required for next generation sequencing and sample identification to the initial product. The final amplicon was sequenced on the Illumina MiSeq instrument according to the manufacturer's protocol. A wide range of editing activities (Table 2) were observed. In a second set of experiments, ANGPTL3 gRNAs were co-transfected with an equivalent amount of in vitro transcribed SpCas9 mRNA (1:1 ratio by weight) into primary human hepatocytes and processed and analyzed similarly (Table 3).
(§2) Plating, culturing, and transfection of primary hepatocytes. Primary human liver hepatocytes (PHH) and primary cynomolgus liver hepatocytes (PCH) from BioIVT were cultured per the manufacturer's protocol. Briefly, primary human hepatocytes and primary cyno hepatocytes were obtained as frozen aliquots from BioIVT. Four lots of primary human hepatocytes, each derived from a de-identified individual donor, were used for the experiments: STL (main donor) was used for all experiments, including screening experiments and off-target experiments; HLY, JLP, and TLY were used for off-target experiments. The HFG lot of primary cyno hepatocytes were used for experiments. Following the manufacturer's instructions, cells were thawed and rinsed prior to plating in 24-well plates that had been coated with bovine collagen overnight, with a density of approximate 350,000 cells/well in INVITROGRO hepatocyte medium supplemented with TORPEDO antibiotic mix (BioIVT). The cells were thawed and resuspended in hepatocyte thawing medium followed by centrifugation at 100 g for 10 min at 4° C. The supernatant was discarded, and the pelleted cells resuspended in hepatocyte plating medium. Each vial contains approximately 5 million cells that were used for plating one 24-well plate. Plated cells were allowed to settle and adhere for 4-6 h in a tissue culture incubator at 37° C. under 5% CO2 atmosphere. After incubation, cells were checked for monolayer formation. The incubating media were then replaced with fresh hepatocyte maintenance media (complete INVITROGRO medium obtained from BioIVT, the cell line provider). The cells thus became ready for transfection. Each of the gRNAs were co-transfected with an equivalent amount of in vitro transcribed ABE8.8 mRNA (1:1 ratio by molecular weight) into primary human hepatocytes via MessengerMax reagent (Lipofectamine), using various dilutions to assess for editing activity at different concentrations of test article. MessengerMAX from Thermo Fisher is used for transfection. Solution A: desired amount of guide RNA is mixed with 1:1 wt ratio of mRNA in OptiMEM. Solution B: MessengerMAX in OptiMEM. After mixing solutions A and B, the mixture was incubated at room temperature for 20 min. 60 μL of the incubated solution was added dropwise to each cell wells. For protospacer sequences that were a perfect match to the corresponding cynomolgous monkey PCSK9 or ANGPTL3 gene sequence, each gRNA was also co-transfected with an equivalent amount of ABE8.8 mRNA (1:1 ratio by molecular weight) into primary cynomolgous hepatocytes, and followed the same transfection protocol. The cells were then allowed to remain at 37° C. for 3 days. […]

ANGPTL3 gene [2] = test: ANGPTL3 gRNA/SpCas9 editing in primary human hepatocytes (Table 3); type: cell-based
Protocol: as §1, §2

| Molecule | Cyno Primary Hepatocyte Editing % 100 ng/mL (ANGPTL3 gene [1]) [%] | Cyno Primary Hepatocyte Editing % 500 ng/ml (ANGPTL3 gene [1]) [%] | Human Primary Hepatocyte Editing % 100 ng/ml (ANGPTL3 gene [2]) [%] | Human Primary Hepatocyte Editing % 500 ng/mL (ANGPTL3 gene [2]) [%] | Cyno Primary Hepatocyte Editing % 100 ng/mL (ANGPTL3 gene [1]; 100 ng/mL, SpCas9 mRNA 1:1 by weight) [%] | Cyno Primary Hepatocyte Editing % 500 ng/ml (ANGPTL3 gene [1]; 500 ng/ml, SpCas9 mRNA 1:1 by weight) [%] | Human Primary Hepatocyte Editing % 100 ng/ml (ANGPTL3 gene [2]; 100 ng/ml, SpCas9 mRNA 1:1 by weight) [%] | Human Primary Hepatocyte Editing % 500 ng/mL (ANGPTL3 gene [2]; 500 ng/mL, SpCas9 mRNA 1:1 by weight) [%] |
| --- | --- | --- | --- | --- | --- | --- | --- | --- |
| GA141: ANGPTL3 gRNA; protospacer TTGAGAGTTGCTGGGTCTGA (SEQ ID NO: 139) (nucleic acid, 2'-O-methyl at 1, 2, other sugars, backbone and T or U not given here; further chemistry not fully specified) guide: UUGAGAGTTGCTGGGTCTGAGTTTTAGAGCTAGAAATAGCAAGTTAAAATAAGGCTAGTCCGTTATCAACTTGAAAAAGTGGCACCGAGTCGGTGCTTTT | 5.49 | 10.32 | 5.80 | 14.87 | – | – | – | – |
| GA131: ANGPTL3 gRNA; protospacer GAAGATAGAGAAATTTCTGT (SEQ ID NO: 129) (nucleic acid, 2'-O-methyl at 1, 2, other sugars and backbone not given here; further chemistry not fully specified) guide: GAAGATAGAGAAATTTCTGTGTTTTAGAGCTAGAAATAGCAAGTTAAAATAAGGCTAGTCCGTTATCAACTTGAAAAAGTGGCACCGAGTCGGTGCTTTT | 10.10 | 27.57 | – | 18.64 | – | – | – | – |
| GA137: ANGPTL3 gRNA; protospacer TATCAGGTAAAACCTGTCTA (SEQ ID NO: 135) (nucleic acid, 2'-O-methyl at 1, 2, other sugars, backbone and T or U not given here; further chemistry not fully specified) guide: UATCAGGTAAAACCTGTCTAGTTTTAGAGCTAGAAATAGCAAGTTAAAATAAGGCTAGTCCGTTATCAACTTGAAAAAGTGGCACCGAGTCGGTGCTTTT | 28.01 | 30.57 | 11.44 | 29.70 | – | – | – | – |
| GA151: ANGPTL3 gRNA; protospacer GAGAACTACAAATATGGTTT (SEQ ID NO: 149) (nucleic acid, 2'-O-methyl at 1, 2, other sugars and backbone not given here; further chemistry not fully specified) guide: GAGAACTACAAATATGGTTTGTTTTAGAGCTAGAAATAGCAAGTTAAAATAAGGCTAGTCCGTTATCAACTTGAAAAAGTGGCACCGAGTCGGTGCTTTT | 11.32 | 38.91 | 10.56 | 31.88 | – | – | – | – |
| GA145: ANGPTL3 gRNA; protospacer CATTATATTCAGGTAGTCCA (SEQ ID NO: 143) (nucleic acid, 2'-O-methyl at 1, 2, other sugars and backbone not given here; further chemistry not fully specified) guide: CATTATATTCAGGTAGTCCAGTTTTAGAGCTAGAAATAGCAAGTTAAAATAAGGCTAGTCCGTTATCAACTTGAAAAAGTGGCACCGAGTCGGTGCTTTT | 18.77 | 30.34 | 12.55 | 26.33 | – | – | – | – |
| GA132: ANGPTL3 gRNA; protospacer GGAAGATAGAGAAATTTCTG (SEQ ID NO: 130) (nucleic acid, 2'-O-methyl at 1, 2, other sugars and backbone not given here; further chemistry not fully specified) guide: GGAAGATAGAGAAATTTCTGGTTTTAGAGCTAGAAATAGCAAGTTAAAATAAGGCTAGTCCGTTATCAACTTGAAAAAGTGGCACCGAGTCGGTGCTTTT | 15 | 26 | 15.25 | 28.39 | – | – | – | – |
| GA142: ANGPTL3 gRNA; protospacer TGAAAAACTTGAGAGTTGCT (SEQ ID NO: 140) (nucleic acid, 2'-O-methyl at 1, 2, other sugars, backbone and T or U not given here; further chemistry not fully specified) guide: UGAAAAACTTGAGAGTTGCTGTTTTAGAGCTAGAAATAGCAAGTTAAAATAAGGCTAGTCCGTTATCAACTTGAAAAAGTGGCACCGAGTCGGTGCTTTT | – | – | – | – | 20.09 | 27.59 | 10.50 | 24.90 |
| GA107: ANGPTL3 gRNA; protospacer AGCCAATGGCCTCCTTCAGT (SEQ ID NO: 105) (nucleic acid, 2'-O-methyl at 1, 2, other sugars and backbone not given here; further chemistry not fully specified) guide: AGCCAATGGCCTCCTTCAGTGTTTTAGAGCTAGAAATAGCAAGTTAAAATAAGGCTAGTCCGTTATCAACTTGAAAAAGTGGCACCGAGTCGGTGCTTTT | 32.58 | – | 3.72 | 5.09 | – | – | – | – |
| GA130: ANGPTL3 gRNA; protospacer ATGATGGTAAGACACTTTGG (SEQ ID NO: 128) (nucleic acid, 2'-O-methyl at 1, 2, other sugars, backbone and T or U not given here; further chemistry not fully specified) guide: AUGATGGTAAGACACTTTGGGTTTTAGAGCTAGAAATAGCAAGTTAAAATAAGGCTAGTCCGTTATCAACTTGAAAAAGTGGCACCGAGTCGGTGCTTTT | 14.60 | 25.90 | 7.51 | 17.09 | – | – | – | – |
| GA143: ANGPTL3 gRNA; protospacer TTAATTCAACATCGAATAGA (SEQ ID NO: 141) (nucleic acid, 2'-O-methyl at 1, 2, other sugars, backbone and T or U not given here; further chemistry not fully specified) guide: UUAATTCAACATCGAATAGAGTTTTAGAGCTAGAAATAGCAAGTTAAAATAAGGCTAGTCCGTTATCAACTTGAAAAAGTGGCACCGAGTCGGTGCTTTT | 14.84 | 21.16 | 9.30 | 19.36 | – | – | – | – |
| GA148: ANGPTL3 gRNA; protospacer ACAAAACTTCAATGAAACGT (SEQ ID NO: 146) (nucleic acid, 2'-O-methyl at 1, 2, other sugars and backbone not given here; further chemistry not fully specified) guide: ACAAAACTTCAATGAAACGTGTTTTAGAGCTAGAAATAGCAAGTTAAAATAAGGCTAGTCCGTTATCAACTTGAAAAAGTGGCACCGAGTCGGTGCTTTT | 28.57 | 69.75 | 12.01 | 31.67 | – | – | – | – |
